Laboratory results as given in article PMC5638340.
pIC50, pKd: −log10 of the molar value.

Tests used:
[1] = molecular target: Acetylcholine binding protein (AChBP) from Lymnaea stagnalis (L. stagnalis) (UniProt P58154); assay: SPR
[2] = molecular target: Acetylcholine binding protein (AChBP) from Lymnaea stagnalis (L. stagnalis) (UniProt P58154); assay: radioligand binding
[3] = molecular target: Human α7 nAChR expressed in GH4C1 cells (human) (UniProt P36544); assay: radioligand binding
[4] = molecular target: Muscle-type nAChR of Torpedo californica electric organ (Torpedo californica); assay: radioligand binding
Chain of Muscle-type nAChR of Torpedo californica electric organ (Torpedo californica) (P02710 25-461, chain 1 of 4): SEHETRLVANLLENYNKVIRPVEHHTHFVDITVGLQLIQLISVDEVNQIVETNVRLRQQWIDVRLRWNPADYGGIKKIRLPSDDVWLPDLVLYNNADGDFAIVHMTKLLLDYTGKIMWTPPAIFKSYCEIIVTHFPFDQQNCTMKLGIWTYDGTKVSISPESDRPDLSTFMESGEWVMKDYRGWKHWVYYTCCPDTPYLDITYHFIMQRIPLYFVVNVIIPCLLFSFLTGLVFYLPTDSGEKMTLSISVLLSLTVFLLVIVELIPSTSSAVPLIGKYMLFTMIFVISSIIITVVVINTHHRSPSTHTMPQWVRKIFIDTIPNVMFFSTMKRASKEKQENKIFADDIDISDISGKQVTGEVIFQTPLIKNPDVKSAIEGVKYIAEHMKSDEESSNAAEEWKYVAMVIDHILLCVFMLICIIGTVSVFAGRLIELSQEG
Chain of Muscle-type nAChR of Torpedo californica electric organ (Torpedo californica) (P02712 25-493, chain 2 of 4, further chain): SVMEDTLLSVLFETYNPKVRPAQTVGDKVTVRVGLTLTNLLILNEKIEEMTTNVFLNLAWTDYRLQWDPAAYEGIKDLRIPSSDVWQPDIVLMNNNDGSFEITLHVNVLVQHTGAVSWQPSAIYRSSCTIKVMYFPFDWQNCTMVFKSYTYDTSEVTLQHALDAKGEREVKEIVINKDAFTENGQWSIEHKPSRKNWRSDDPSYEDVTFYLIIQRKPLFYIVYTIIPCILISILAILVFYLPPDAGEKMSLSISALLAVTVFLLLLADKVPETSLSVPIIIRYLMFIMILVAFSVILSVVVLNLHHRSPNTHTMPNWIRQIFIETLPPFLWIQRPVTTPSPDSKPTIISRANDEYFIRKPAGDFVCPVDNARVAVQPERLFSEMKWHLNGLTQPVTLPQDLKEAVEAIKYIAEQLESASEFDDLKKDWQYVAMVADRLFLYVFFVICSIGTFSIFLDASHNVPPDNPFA
Chain of Muscle-type nAChR of Torpedo californica electric organ (Torpedo californica) (P02714 18-506, chain 3 of 4, further chain): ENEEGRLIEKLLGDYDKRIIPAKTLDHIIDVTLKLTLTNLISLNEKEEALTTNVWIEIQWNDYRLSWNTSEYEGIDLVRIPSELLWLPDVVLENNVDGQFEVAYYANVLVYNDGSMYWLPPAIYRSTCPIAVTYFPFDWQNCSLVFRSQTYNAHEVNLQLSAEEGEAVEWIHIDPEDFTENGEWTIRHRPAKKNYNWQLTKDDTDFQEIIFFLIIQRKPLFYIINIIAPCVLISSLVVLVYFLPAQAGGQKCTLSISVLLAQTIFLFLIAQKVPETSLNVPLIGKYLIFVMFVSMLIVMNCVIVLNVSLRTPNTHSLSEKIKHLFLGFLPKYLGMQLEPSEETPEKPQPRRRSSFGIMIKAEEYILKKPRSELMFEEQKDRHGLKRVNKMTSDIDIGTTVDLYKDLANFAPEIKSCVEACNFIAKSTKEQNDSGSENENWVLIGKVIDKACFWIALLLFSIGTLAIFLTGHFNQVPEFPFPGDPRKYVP
Chain of Muscle-type nAChR of Torpedo californica electric organ (Torpedo californica) (P02718 22-522, chain 4 of 4, further chain): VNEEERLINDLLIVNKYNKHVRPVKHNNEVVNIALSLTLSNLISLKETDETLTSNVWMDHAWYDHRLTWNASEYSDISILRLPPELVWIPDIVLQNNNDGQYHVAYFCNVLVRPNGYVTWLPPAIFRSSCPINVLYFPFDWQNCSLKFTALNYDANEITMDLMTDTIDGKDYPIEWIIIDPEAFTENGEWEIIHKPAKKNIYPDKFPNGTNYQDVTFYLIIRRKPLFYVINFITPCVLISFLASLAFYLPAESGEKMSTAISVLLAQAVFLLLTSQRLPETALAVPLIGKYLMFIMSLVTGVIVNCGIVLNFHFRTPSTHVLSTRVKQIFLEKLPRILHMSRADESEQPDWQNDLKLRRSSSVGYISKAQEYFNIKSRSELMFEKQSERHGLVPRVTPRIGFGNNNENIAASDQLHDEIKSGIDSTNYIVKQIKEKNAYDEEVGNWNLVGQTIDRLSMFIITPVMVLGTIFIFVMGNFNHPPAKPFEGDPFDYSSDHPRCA

Chain of Acetylcholine binding protein (AChBP) from Lymnaea stagnalis (L. stagnalis) (P58154 20-229): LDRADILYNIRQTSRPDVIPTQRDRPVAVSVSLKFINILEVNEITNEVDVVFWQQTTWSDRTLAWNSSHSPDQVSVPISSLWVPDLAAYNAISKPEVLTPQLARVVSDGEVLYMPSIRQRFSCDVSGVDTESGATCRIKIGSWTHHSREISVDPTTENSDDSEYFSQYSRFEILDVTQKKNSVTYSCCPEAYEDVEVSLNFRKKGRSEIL
Chain of Human α7 nAChR expressed in GH4C1 cells (human) (P36544 23-502): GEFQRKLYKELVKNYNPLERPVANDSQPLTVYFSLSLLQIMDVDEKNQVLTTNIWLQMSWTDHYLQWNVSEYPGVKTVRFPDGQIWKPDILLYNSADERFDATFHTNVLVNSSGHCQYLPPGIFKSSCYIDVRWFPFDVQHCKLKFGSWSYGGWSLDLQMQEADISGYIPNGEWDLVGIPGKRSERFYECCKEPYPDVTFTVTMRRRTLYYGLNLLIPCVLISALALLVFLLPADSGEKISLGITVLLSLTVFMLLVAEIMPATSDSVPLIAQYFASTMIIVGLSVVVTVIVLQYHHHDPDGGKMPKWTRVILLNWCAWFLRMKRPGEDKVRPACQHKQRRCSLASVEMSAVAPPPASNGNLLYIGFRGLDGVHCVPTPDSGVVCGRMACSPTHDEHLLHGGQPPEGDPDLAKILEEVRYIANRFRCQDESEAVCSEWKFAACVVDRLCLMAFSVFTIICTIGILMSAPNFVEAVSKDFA

Substance: Crotoxin from Crotalus durissus terrificus venom (complex)
- pKd [1]: 6.92
- pIC50 [2]: 6.19
- IC50, high affinity site (two-site model) [3]: 4.9 nM
- IC50, low affinity site (two-site model) [3]: 15000 nM
- IC50, high affinity site (two-site model) [4]: 30 nM
- IC50, low affinity site (two-site model) [4]: 260 nM
